{"source": "the RNAGym collection of RNA variant scans (doi:10.1101/gr.219683.116)", "parents": {"B1": {"name": "mRNA-splicing (parent)", "chain": "AGUUGCUGCUGGGAGCUCCAGCACAGUGAAAUGGACAGAAGGGCAGAGCAA"}}}
{"variants_of": "B1", "experiment": "exon inclusion enrichment index; higher = more inclusion; WT1 exon 5 minigene, HEK293"}
{"variant": "AGUUGCUGCUGGGAGGCCCAGCACAGUGAAAUGGACAGAAGGGCAGAGCAA", "exon inclusion enrichment index": 0.114}
{"variant": "AGUUGCUGCUGGGAGGGCCAGCACAGUGAAAUGGACAGAAGGGCAGAGCAA", "exon inclusion enrichment index": 0.0697}
{"variant": "AGUUGCUGCUGGGAGGACCAGCACAGUGAAAUGGACAGAAGGGCAGAGCAA", "exon inclusion enrichment index": 0.231}
{"variant": "AGUUGCUGCUGGGAGCUCUAGCACAGUGAAAUGGACAGAAGGGCAGAGCAA", "exon inclusion enrichment index": 0.199}
{"variant": "AGUUGCUGCUGGGAGCUCGAGCACAGUGAAAUGGACAGAAGGGCAGAGCAA", "exon inclusion enrichment index": 2.42}
{"variant": "AGUUGCUGCUGGGAGCUCAAGCACAGUGAAAUGGACAGAAGGGCAGAGCAA", "exon inclusion enrichment index": 1.49}
{"variant": "AGUUGCUGCUGGGAGCUCCACUACAGUGAAAUGGACAGAAGGGCAGAGCAA", "exon inclusion enrichment index": 2.41}
{"variant": "AGUUGCUGCUGGGAGCUCCACGACAGUGAAAUGGACAGAAGGGCAGAGCAA", "exon inclusion enrichment index": 3.35}
{"variant": "AGUUGCUGCUGGGAGCUCCACAACAGUGAAAUGGACAGAAGGGCAGAGCAA", "exon inclusion enrichment index": 2.18}
{"variant": "AGUUGCUGCUGGGAGCUCCAAGACAGUGAAAUGGACAGAAGGGCAGAGCAA", "exon inclusion enrichment index": 2.36}
{"variant": "AGUUGCUGCUGGGAGCUCCAAAACAGUGAAAUGGACAGAAGGGCAGAGCAA", "exon inclusion enrichment index": 1.17}
{"variant": "AGUUGCUGCUGGGAGCUCCAAUACAGUGAAAUGGACAGAAGGGCAGAGCAA", "exon inclusion enrichment index": 1.19}
{"variant": "AGUUGCUGCUGGGAGCAGCAGCACAGUGAAAUGGACAGAAGGGCAGAGCAA", "exon inclusion enrichment index": 0.00663}
{"variant": "AGUUGCUGCUGGGAGCAUCAGCACAGUGAAAUGGACAGAAGGGCAGAGCAA", "exon inclusion enrichment index": 1.09}
{"variant": "AGUUGCUGCUGGGAGCAACAGCACAGUGAAAUGGACAGAAGGGCAGAGCAA", "exon inclusion enrichment index": 0.314}
{"variant": "AGUUGCUGCUGGGAGCUGAAGCACAGUGAAAUGGACAGAAGGGCAGAGCAA", "exon inclusion enrichment index": 2.92}
{"variant": "AGUUGCUGCUGGGAGCUGGAGCACAGUGAAAUGGACAGAAGGGCAGAGCAA", "exon inclusion enrichment index": 3.04}
{"variant": "AGUUGCUGCUGGGAGCUGUAGCACAGUGAAAUGGACAGAAGGGCAGAGCAA", "exon inclusion enrichment index": 0.777}
{"variant": "AGUUGCUGCUGGGAGCUCCAUAACAGUGAAAUGGACAGAAGGGCAGAGCAA", "exon inclusion enrichment index": 1.05}
{"variant": "AGUUGCUGCUGGGAGCUCCAUUACAGUGAAAUGGACAGAAGGGCAGAGCAA", "exon inclusion enrichment index": 0.89}
{"variant": "AGUUGCUGCUGGGAGCUCCAUGACAGUGAAAUGGACAGAAGGGCAGAGCAA", "exon inclusion enrichment index": 2.39}
{"variant": "AGUUGCUGCUGGGAGAACCAGCACAGUGAAAUGGACAGAAGGGCAGAGCAA", "exon inclusion enrichment index": 0.0497}
{"variant": "AGUUGCUGCUGGGAGAGCCAGCACAGUGAAAUGGACAGAAGGGCAGAGCAA", "exon inclusion enrichment index": 0.0435}
{"variant": "AGUUGCUGCUGGGAGACCCAGCACAGUGAAAUGGACAGAAGGGCAGAGCAA", "exon inclusion enrichment index": 0.0503}
{"variant": "AGUUGCUGCUGGGACGUCCAGCACAGUGAAAUGGACAGAAGGGCAGAGCAA", "exon inclusion enrichment index": 0.178}
{"variant": "AGUUGCUGCUGGGACAUCCAGCACAGUGAAAUGGACAGAAGGGCAGAGCAA", "exon inclusion enrichment index": 0.0306}
{"variant": "AGUUGCUGCUGGGACUUCCAGCACAGUGAAAUGGACAGAAGGGCAGAGCAA", "exon inclusion enrichment index": 0.0653}
{"variant": "AGUUGCUGCUGGGAGCCGCAGCACAGUGAAAUGGACAGAAGGGCAGAGCAA", "exon inclusion enrichment index": 0.369}
{"variant": "AGUUGCUGCUGGGAGCCACAGCACAGUGAAAUGGACAGAAGGGCAGAGCAA", "exon inclusion enrichment index": 1.29}
{"variant": "AGUUGCUGCUGGGAGCCUCAGCACAGUGAAAUGGACAGAAGGGCAGAGCAA", "exon inclusion enrichment index": 1.34}
{"variant": "AGUUGCUGCUGGUAGCUCCAGCACAGUGAAAUGGACAGAAGGGCAGAGCAA", "exon inclusion enrichment index": 0.0154}
{"variant": "AGUUGCUGCUGGGAGCUUUAGCACAGUGAAAUGGACAGAAGGGCAGAGCAA", "exon inclusion enrichment index": 0.0838}
{"variant": "AGUUGCUGCUGGGAGCUUAAGCACAGUGAAAUGGACAGAAGGGCAGAGCAA", "exon inclusion enrichment index": 0.302}
{"variant": "AGUUGCUGCUGGGAGCUUGAGCACAGUGAAAUGGACAGAAGGGCAGAGCAA", "exon inclusion enrichment index": 0.995}
{"variant": "AGUUGCUGCUGGGAGCUCCGACACAGUGAAAUGGACAGAAGGGCAGAGCAA", "exon inclusion enrichment index": 2.89}
{"variant": "AGUUGCUGCUGGGAGCUCCGCCACAGUGAAAUGGACAGAAGGGCAGAGCAA", "exon inclusion enrichment index": 2.64}
{"variant": "AGUUGCUGCUGGGAGCUCCGUCACAGUGAAAUGGACAGAAGGGCAGAGCAA", "exon inclusion enrichment index": 2.37}
{"variant": "AGUUGCUGCUGGGAGCUAGAGCACAGUGAAAUGGACAGAAGGGCAGAGCAA", "exon inclusion enrichment index": 0.352}
{"variant": "AGUUGCUGCUGGGAGCUAAAGCACAGUGAAAUGGACAGAAGGGCAGAGCAA", "exon inclusion enrichment index": 0.547}
{"variant": "AGUUGCUGCUGGGAGCUAUAGCACAGUGAAAUGGACAGAAGGGCAGAGCAA", "exon inclusion enrichment index": 0.121}
{"variant": "AGUUGCUGCUGGGAGCUCCAUCACAGUGAAAUGGACAGAAGGGCAGAGCAA", "exon inclusion enrichment index": 1.52}
{"variant": "AGUUGCUGCUGGGAGCUCCACCACAGUGAAAUGGACAGAAGGGCAGAGCAA", "exon inclusion enrichment index": 2.64}
{"variant": "AGUUGCUGCUGGGAGCUCCAACACAGUGAAAUGGACAGAAGGGCAGAGCAA", "exon inclusion enrichment index": 1.75}
{"variant": "AGUUGCUGCUGGCUGCUCCAGCACAGUGAAAUGGACAGAAGGGCAGAGCAA", "exon inclusion enrichment index": 0.194}
{"variant": "AGUUGCUGCUGGCGGCUCCAGCACAGUGAAAUGGACAGAAGGGCAGAGCAA", "exon inclusion enrichment index": 0.42}
{"variant": "AGUUGCUGCUGGGAGCUCCUGCACAGUGAAAUGGACAGAAGGGCAGAGCAA", "exon inclusion enrichment index": 2.62}
{"variant": "AGUUGCUGCUGGGAGCUCCGGCACAGUGAAAUGGACAGAAGGGCAGAGCAA", "exon inclusion enrichment index": 1.58}
{"variant": "AGUUGCUGCUGGGAGCUCCCGCACAGUGAAAUGGACAGAAGGGCAGAGCAA", "exon inclusion enrichment index": 2.03}
{"variant": "AGUUGCUGCUGGGAGCGCCAGCACAGUGAAAUGGACAGAAGGGCAGAGCAA", "exon inclusion enrichment index": 0.247}
{"variant": "AGUUGCUGCUGGGAGCACCAGCACAGUGAAAUGGACAGAAGGGCAGAGCAA", "exon inclusion enrichment index": 0.131}
{"variant": "AGUUGCUGCUGGGAGCCCCAGCACAGUGAAAUGGACAGAAGGGCAGAGCAA", "exon inclusion enrichment index": 0.0839}
